Common to all, as to type: binding
Test [1] concerns the target T1, von Willebrand Factor (vWF) (Homo sapiens, UniProt P04275). Briefly: Purification of vWF from cryoprecipitate PEG filtrate of human plasma on peptide-Toyopearl column. Conditions: PEG filtrate treated with TNBP/Tween 20; 54 mg/ml peptide; eluted with 0.35M CaCl2. Here is the method: The starting material called PEG filtrate was processed from human plasma cryoprecipitate at Bayer Corp. (Clayton, N.C.). This material contained vWF, FVIII, significant fibrinogen, fibronectin, and IgM. The PEG filtrate was treated with 1% TNBP (tri-n-butylphosphate) and 0.5 % Tween 20 (from Aldrich) at 30° C. for 3 hours. After the treatment, the mixture was directly injected onto peptide affinity columns.
Confirmation of the purification of vWF on RVRSFY-Toyopearl was performed using PEG filtrate as the starting material (FIG. 2). Inclusion of a 0.15M NaCl wash and an additional 0.35M NaCl wash removed the bulk of the albumin. Bound vWF was eluted with 2% acetic acid.
The PEG filtrate was treated with virus inactivation reagents, 1% TNBP and 0.5% Tween 20 at 30° C. for 3 hours. The treated PEG fitrate was injected directly into the column. […] Approximately 74% of the total vWF was eluted with 0.35M CaCl2 (small peak at 10 min).

Test [2] concerns the target T1, von Willebrand Factor (vWF). Briefly: Peptide-Toyopearl affinity column chromatography of Koate; vWF in fractions by ELISA, protein by A280. The arrangement: Koate® containing vWF, FVIII, and albumin was a product of Bayer Corp; tissue Bayer Corp. (Clayton, N.C.) Koate; host or cells: plasma-derived concentrate (Koate). Here is the method: The gel slurry (1 ml wet gel mixed with 2 ml degassed PBS and 1 M sodium chloride buffer) was transferred into a packing device (from PerSeptive Biosystems, Framingham, Mass.) and packed into a PEEK column (0.75 cm×5 cm from Alltech, Deerfield, Ill.) at a flow rate of 8 ml/min. […] The column was washed with at least 4 bed volumes of binding buffer (10 mM HEPES, 100 mM NaCl, 5 mM calcium chloride at pH 7) and elution buffer (2% acetic acid), then equilibrated with binding buffer.
Protein concentrations were monitored by A280 absorbance. Samples were characterized using vWF ELISA. Briefly, anti-vWF antibody (from Accurate Inc. N.Y.) was coated on each well of a microliter plate (96 wells from Corning, N.Y. 14831) overnight using 100 μl solution of antibody diluted 200 times in 0.1M sodium bicarbonate buffer at pH 9.6. Each well was then blocked with 300 μl solution of 1% BSA in PBS for 1 hour at room temperature. The plate was washed 5 times with PBS. Pure vWF and the collected samples were diluted to a concentration range between 0.02 to 0.2 μg/ml using 1 mg/ml BSA in PBS. Each sample (100 μl) was incubated with the anti-vWF coated well for 1 hour at room temperature and the plate was washed 5 times with PBS plus 0.1% Tween 20. A second anti-vWF antibody with horse radish peroxidase (HRP) conjugate (from DAKO, Glostrup, Denmark) at a concentration of 1 to 500 dilution was introduced to each well and incubated for i hour at room temperature. The plate was washed again with PBS plus 0.1% Tween 20 for 5 times. Substrate ABTS (2,2'-azino-bis(3-ethylbenz-thiazoline-6-sulfonic acid)) and H2 O2 were used for the kinetic reading at 410 nm using Bio Kinetics Reader from BioTek (Winooski, Vt.).
Peptide RLRSFY was directly synthesized (25) onto a modified Toyopearl resin (--(β-Ala)2 -Toyopearl) and the resin was packed in a 1 ml column (0.7×2.5 cm). Koate (Bayer's product containing vWF, FVIII and human albumin) was applied to the column at a flow rate of 2 ml/min in binding buffer (10 mM HEPES, 5 mM calcium chloride and 0.1M NaCl, pH 7). After 1 min of washing in binding buffer, a linear gradient from 0.1 to 1M NaCl in HEPES buffer was applied to the column over 5 min. The elution with high salt concentration was maintained for another 1 min, before 2% acetic acid was used to elute the retained protein. […] The remainder was eluted using 2% acetic acid. In a control experiment in which no peptide was attached to the resin (only --(β-Ala)2 -Toyopearl), almost all protein from 0.1 ml Koate flowed through the column under the same conditions used for the peptide-Toyopearl column.
Single conservative amino acid substitutions at the first three positions of RLRSFY were synthesized directly on (β-Ala)2 -Toyopearl. Amino acid substitutions used for both positions of arginine (R) were histidine (H), lysine (K), glutamine (Q), and asparagine (N). Substitutions for leucine (L) include isoleucine (I), valine (V), phenylalanine (F), and tyrosine (Y). These individual substitutions created 12 unique peptide sequences. (SEQ ID NOS: 1 to 12 ) After the resins were packed into 1 ml glass columns, 0.1 ml Koate was applied to each column and eluted with sodium chloride gradient and 2% acetic acid, same as in FIG. 1. Fractions were collected and analyzed for A280 absorbance and ELISA. […] The substitution of the R at the third position from the N-terminus had no effect on the capture of vWF from Koate. […] Maximum vWF binding occurred when L was substituted for V.
In general terms: An ELISA detects its analyte on a solid surface through an enzyme-linked reagent.

Test [3] has the same target. Briefly: Batch adsorption isotherm of vWF onto peptide-Toyopearl, Langmuir fit. Also noted: Koate® containing vWF, FVIII, and albumin was a product of Bayer Corp; tissue Bayer Corp. (Clayton, N.C.) Koate; host or cells: plasma-derived concentrate (Koate). The method, then: Adsorption isotherms were measured in a batch mode. In a siliconized microcentrifuge tube, 0.1 ml wet gel was mixed with vWF solution of 10 mM HEPES, 5 mM calcium chloride and 0.5M sodium chloride at pH 7 in a total volume of 0.3 ml. The microcentrifuge tube was incubated at 25° C. for 20 minutes, then the gel was separated from the solution by microcentrifugation. The concentrations of vWF in solutions were measured both by absorbance at 280 nm with an extinction coefficient of 1.2 for 1 mg/ml vWF and by ELISA.
Interactions between RVRSFY directly synthesized on Toyopearl and vWF were studied through adsorption isotherm measurements. Because vWF consists of a wide range of molecular weights, complex theoretical analyses are required to obtain binding constants from the adsorption isotherms. In addition, different multimers of vWF may have different binding constants. To simplify the analyses, vWF with molecular weight around 1000 kDa was fractionated from Koate using size exclusion chromatography with Bio-Gel A-5M gel (BioRad) and analyzed by nonreducing agarose gel electrophoresis.
An increase of peptide density increases adsorption of vWF. A minimum peptide density, 32 mg peptide Ac-RVRSFYK/ml resin ([…]), is required for the binding of vWF to the peptide. The Langmuir equation was used to fit these isotherms, and the association constants and maximum capacities obtained from curve fits are listed in Table 3. They show an increase of association constant and maximum binding capacity with an increase of peptide density mobilized on the Toyopearl resin.

For test [4] the target is unchanged. Briefly: Peptide-Toyopearl affinity column chromatography of Koate; vWF in fractions by ELISA, protein by A280. Also noted: Koate® containing vWF, FVIII, and albumin was a product of Bayer Corp; tissue Bayer Corp. (Clayton, N.C.) Koate; host or cells: plasma-derived concentrate (Koate). The settings on record: for percentage of vWF eluted: 0.5M calcium chloride.

Consider “Ac-RVRSFYK-amide (Ac-RVRSFYK-NH2) [Ac-RVRSFYK-Toyopearl, peptide immobilized to Toyopearl-Epoxy-650M resin through the C-terminal lysine]”, for which the “total vWF eluted” value in test [1] is listed as “Approximately 74%”. In test [2] (0.1 ml Koate, 0.4 ml column, 54 mg/ml peptide), the “vWF recovered in all fractions (ELISA)” value is 87.8%. For the same substance, the “percentage of vWF eluted” value in test [2] (0.5M calcium chloride, 30° C.) amounted to 89%; in test [4] (22° C.) it was 80%; in test [4] (26° C.), 85%. Further, the “vWF captured by the peptide column” value is reported as “about 95%” in test [2] (Koate, between pH 6 and 7); 91% in test [2] (Koate, solution pH 5); 65% in test [4] (Koate, solution pH 4.6). The “captured vWF eluted” value in test [2] (calcium and magnesium concentrations higher than 0.3M) was “about 80%”. In test [2] (elution with 2M NaCl, Koate), the “release of captured vWF by salt elution” value is “not released”. The Association constant in test [3] (peptide density 32 mg/ml) came out at 882000 M⁻¹; in test [3] (peptide density 45 mg/ml), 1.12e+06 M⁻¹; in test [3] (peptide density 54 mg/ml) it was 1.68e+06 M⁻¹; in test [3] (peptide density 60 mg/ml), 2.06e+06 M⁻¹. Moreover, the Maximum capacity in test [3] (peptide density 32 mg/ml) amounted to 2.32 mg/mL; in test [3] (peptide density 45 mg/ml), 7.3 mg/mL; in test [3] (peptide density 54 mg/ml), 9.7 mg/mL; in test [3] (peptide density 60 mg/ml) it was 10.33 mg/mL. Also, the “total vWF in the CaCl2 fraction (ELISA)” value in test [4] (0.1 ml Koate, 0.4 ml column, 54 mg/ml peptide, 0.5M CaCl2) is listed as 82.5%.

Values taken from patent US5688912A, “Peptide ligands which bind to von willebrand factor” (Bayer Corporation, priority 1995, dated 1997).
